T1: cynomolgus monkey FcγRIIa2 extracellular domain, C-terminal His-tag (cynomolgus monkey)
T1 construct: also called cyno FcγRIIa2; cynoFcgRIIa2; not shown: His-tag added to C-terminus
T1 chain: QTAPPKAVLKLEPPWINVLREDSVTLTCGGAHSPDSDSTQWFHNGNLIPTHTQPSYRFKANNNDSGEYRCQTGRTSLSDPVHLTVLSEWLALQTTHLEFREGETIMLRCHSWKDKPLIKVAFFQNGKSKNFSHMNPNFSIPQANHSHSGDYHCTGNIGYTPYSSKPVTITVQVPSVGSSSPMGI

T2: human FcγRIIaH extracellular domain, C-terminal His-tag (human, UniProt P12318 34-217)
T2 construct: also called human FcγRIIa (type H); FcgRIIaH; not shown: His-tag added to C-terminus
T2 sequence: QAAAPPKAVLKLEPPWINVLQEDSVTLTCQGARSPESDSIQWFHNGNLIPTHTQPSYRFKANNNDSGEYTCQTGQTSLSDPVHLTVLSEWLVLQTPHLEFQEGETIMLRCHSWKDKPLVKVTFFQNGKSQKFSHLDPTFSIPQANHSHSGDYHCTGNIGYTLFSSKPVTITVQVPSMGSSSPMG

T3: cynomolgus monkey FcγRIIb extracellular domain, C-terminal His-tag (cynomolgus monkey)
T3 construct: also called cyno FcγRIIb; cynoFcγRIIb; not shown: His-tag added to C-terminus
T3 chain: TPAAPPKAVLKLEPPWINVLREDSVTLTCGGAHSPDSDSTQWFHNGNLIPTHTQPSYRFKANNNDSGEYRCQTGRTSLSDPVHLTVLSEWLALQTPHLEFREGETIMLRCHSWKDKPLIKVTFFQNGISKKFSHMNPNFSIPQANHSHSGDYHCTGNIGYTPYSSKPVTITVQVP

T4: human FcγRIIaR extracellular domain, C-terminal His-tag (human, UniProt P12318 34-217)
T4 construct: also called human FcγRIIa (type R); FcgRIIaR; not shown: His-tag added to C-terminus
T4 chain: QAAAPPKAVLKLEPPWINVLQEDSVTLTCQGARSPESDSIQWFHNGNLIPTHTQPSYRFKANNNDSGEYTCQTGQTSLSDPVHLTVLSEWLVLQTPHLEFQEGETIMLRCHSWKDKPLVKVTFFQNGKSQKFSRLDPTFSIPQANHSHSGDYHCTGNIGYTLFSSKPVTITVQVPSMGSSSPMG

T5: cynomolgus monkey FcγRIIa3 extracellular domain, C-terminal His-tag (cynomolgus monkey)
T5 construct: also called cyno FcγRIIa3; cynoFcgRIIa3; not shown: His-tag added to C-terminus
T5 chain: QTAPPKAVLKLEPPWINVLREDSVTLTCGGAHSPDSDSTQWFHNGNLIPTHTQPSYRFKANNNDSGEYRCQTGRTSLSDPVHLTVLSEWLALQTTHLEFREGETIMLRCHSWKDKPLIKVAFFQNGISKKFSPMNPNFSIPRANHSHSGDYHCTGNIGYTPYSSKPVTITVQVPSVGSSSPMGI

T6: cynomolgus monkey FcγRIIa1 extracellular domain, C-terminal His-tag (cynomolgus monkey)
T6 construct: also called cyno FcγRIIa1; cynoFcgRIIa1; not shown: His-tag added to C-terminus
T6 chain: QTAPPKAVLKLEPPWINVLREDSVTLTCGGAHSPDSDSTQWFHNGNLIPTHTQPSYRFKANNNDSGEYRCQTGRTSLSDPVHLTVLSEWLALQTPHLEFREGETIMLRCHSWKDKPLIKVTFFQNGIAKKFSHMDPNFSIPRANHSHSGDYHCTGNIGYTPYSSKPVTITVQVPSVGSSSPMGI

T7: human FcγRIIb extracellular domain, C-terminal His-tag (human, UniProt P31994 43-217)
T7 construct: also called FcgRIIb (human); not shown: His-tag added to C-terminus
T7 sequence: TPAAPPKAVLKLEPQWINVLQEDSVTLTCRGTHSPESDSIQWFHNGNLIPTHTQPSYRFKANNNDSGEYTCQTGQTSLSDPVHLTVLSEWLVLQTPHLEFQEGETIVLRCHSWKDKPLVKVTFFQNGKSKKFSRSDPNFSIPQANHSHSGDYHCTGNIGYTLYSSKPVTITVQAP


Assays:
[1] = biological target: T1, cynomolgus monkey FcγRIIa2 …; assay: SPR (Biacore), KD of SG1 / KD of variant;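 further: relative to parent M103205H795-SG1 carrying the SG1 human heavy chain constant region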
[2] = biological target: T2, human FcγRIIaH extracellular domain, …; assay: SPR (Biacore), KD of SG1 / KD of variant;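 further: relative to parent M103205H795-SG1 carrying the SG1 human heavy chain constant region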
[3] = biological target: T3, cynomolgus monkey FcγRIIb extracellular …; assay: SPR (Biacore), KD of SG1 / KD of variant;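 further: relative to parent M103205H795-SG1 carrying the SG1 human heavy chain constant region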
[4] = biological target: T8, human FcγRIIIaV extracellular domain, C-terminal His-tag (human, UniProt P08637 17-208); assay: SPR (Biacore), KD of SG1 / KD of variant;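 further: relative to parent M103205H795-SG1 carrying the SG1 human heavy chain constant region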
T8 construct: also called FcgRIIIaV; not shown: His-tag added to C-terminus

[5] = biological target: T4, human FcγRIIaR extracellular domain, …; assay: SPR (Biacore), KD of SG1 / KD of variant
[6] = biological target: T5, cynomolgus monkey FcγRIIa3 …; assay: SPR (Biacore), KD of SG1 / KD of variant
[7] = biological target: T6, cynomolgus monkey FcγRIIa1 …; assay: SPR (Biacore), KD of SG1 / KD of variant
[8] = biological target: T7, human FcγRIIb extracellular domain, …; assay: SPR (Biacore), KD of SG1 / KD of variant
[9] = biological target: T7, human FcγRIIb extracellular domain, …; assay: SPR (Biacore), antibody captured, FcgR analyte, 25 C

T8 sequence (P08637 17-208 F176V): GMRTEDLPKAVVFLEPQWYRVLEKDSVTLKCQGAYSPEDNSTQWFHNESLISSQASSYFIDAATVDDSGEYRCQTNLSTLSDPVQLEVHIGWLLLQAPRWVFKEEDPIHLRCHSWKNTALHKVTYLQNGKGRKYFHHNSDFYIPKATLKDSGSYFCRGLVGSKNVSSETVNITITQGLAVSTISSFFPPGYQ

Binder | KD fold (SG1 = 1) [1] | KD fold (SG1 = 1) [2] | KD fold (SG1 = 1) [3] | KD fold (SG1 = 1) [4] | KD fold (SG1 = 1) [5] | KD fold (SG1 = 1) [6] | KD fold (SG1 = 1) [7] | KD fold (SG1 = 1) [8] | Kd [9]
M103205H795-MY279/M103202L889-SK1 (antibody, human IgG1, kappa) heavy: QVTLKESGPVLVKPTETLTLTCTVSGIDLSHDDISWVRQAPGKGLEWVGIISYAGSTYYASWAKGRLTISKDTSKNQVVLTMTNMDPVDTATYYCARGVPAYSHGGDLWGQGTLVTVSSASTKGPSVFPLAPSSKSTSGGTAALGCLVKDYFPEPVTVSWNSGALTSGVHTFPAVLQSSGLYSLSSVVTVPSSSLGTQTYICNVNHKPSNTKVDKKVEPKSCDKTHTCPPCPAPELLHGPSVFLFPPKPKDTLMISRTPEVTCVVVDVSDEDPEVKFNWYVDGVEVHNAKTKPREELYNSTYRVVSVLTVLHQDWLNGKEYKCKVSNKALPKPIEKTISKAKGQPREPQVYTLPPSREEMTKNQVSLTCLVKGFYPSDIAVEWESNGQPENNYKTTPPVLDSDGSFFLYSKLTVDKSRWQQGNVFSCSVMHEALHNHYTQKSLSLSP light: DIVMTQSPATLSLSPGERATLSCTSSQSVYHANWLSWFQQKPGQPPKLLIYWASTLAYGVPSRFSGSGSGTDFTLTISSLQPEDAATYYCAGGYGGGRYAFGQGTKVEIKRTVAAPSVFIFPPSDEQLKSGTASVVCLLNNFYPREAKVQWKVDNALQSGNSQESVTEQDSKDSTYSLSSTLTLSKADYEKHKVYACEVTHQGLSSPVTKSFNRGEC | 1.5 fold | 4.9 fold | 2 fold | 0.12 fold | 1.5 fold | 3.6 fold | 1.1 fold | 1 fold | 4600 nM
M103205H795-MY293/M103202L889-SK1 (antibody, human IgG1, kappa) heavy: QVTLKESGPVLVKPTETLTLTCTVSGIDLSHDDISWVRQAPGKGLEWVGIISYAGSTYYASWAKGRLTISKDTSKNQVVLTMTNMDPVDTATYYCARGVPAYSHGGDLWGQGTLVTVSSASTKGPSVFPLAPSSKSTSGGTAALGCLVKDYFPEPVTVSWNSGALTSGVHTFPAVLQSSGLYSLSSVVTVPSSSLGTQTYICNVNHKPSNTKVDKKVEPKSCDKTHTCPPCPAPELLGYPSVFLFPPKPKDTLMISRTPEVTCVVVDVSEEDPEVKFNWYVDGVEVHNAKTKPREELYNSTYRVVSVLTVLHQDWLNGKEYKCKVSNKALPKPIEKTISKAKGQPREPQVYTLPPSREEMTKNQVSLTCLVKGFYPSDIAVEWESNGQPENNYKTTPKVLDSDGSFFLYSKLTVDKSRWQQGNVFSCSVMHEALHNHYTQKSLSLSP light: DIVMTQSPATLSLSPGERATLSCTSSQSVYHANWLSWFQQKPGQPPKLLIYWASTLAYGVPSRFSGSGSGTDFTLTISSLQPEDAATYYCAGGYGGGRYAFGQGTKVEIKRTVAAPSVFIFPPSDEQLKSGTASVVCLLNNFYPREAKVQWKVDNALQSGNSQESVTEQDSKDSTYSLSSTLTLSKADYEKHKVYACEVTHQGLSSPVTKSFNRGEC | 1.5 fold | 0.5 fold | 2.1 fold | 0.02 fold | 15.1 fold | 4.4 fold | 1.1 fold | 30.7 fold | 150 nM

More lines, in order of falling Kd [9], values ahead:

KD fold (SG1 = 1) [1] | KD fold (SG1 = 1) [2] | KD fold (SG1 = 1) [3] | KD fold (SG1 = 1) [4] | KD fold (SG1 = 1) [5] | KD fold (SG1 = 1) [6] | KD fold (SG1 = 1) [7] | KD fold (SG1 = 1) [8] | Kd [9] | Binder
2 fold | 3.3 fold | 2.9 fold | 0.39 fold | 2.8 fold | 1.9 fold | 1.7 fold | 2.6 fold | 1800 nM | M103205H795-MY281/M103202L889-SK1 (antibody, human IgG1, kappa) heavy: QVTLKESGPVLVKPTETLTLTCTVSGIDLSHDDISWVRQAPGKGLEWVGIISYAGSTYYASWAKGRLTISKDTSKNQVVLTMTNMDPVDTATYYCARGVPAYSHGGDLWGQGTLVTVSSASTKGPSVFPLAPSSKSTSGGTAALGCLVKDYFPEPVTVSWNSGALTSGVHTFPAVLQSSGLYSLSSVVTVPSSSLGTQTYICNVNHKPSNTKVDKKVEPKSCDKTHTCPPCPAPELLQGPSVFLFPPKPKDTLMISRTPEVTCVVVDVSDEDPEVKFNWYVDGVEVHNAKTKPREELYNSTYRVVSVLTVLHQDWLNGKEYKCKVSNKALPKPIEKTISKAKGQPREPQVYTLPPSREEMTKNQVSLTCLVKGFYPSDIAVEWESNGQPENNYKTTPPVLDSDGSFFLYSKLTVDKSRWQQGNVFSCSVMHEALHNHYTQKSLSLSP light: DIVMTQSPATLSLSPGERATLSCTSSQSVYHANWLSWFQQKPGQPPKLLIYWASTLAYGVPSRFSGSGSGTDFTLTISSLQPEDAATYYCAGGYGGGRYAFGQGTKVEIKRTVAAPSVFIFPPSDEQLKSGTASVVCLLNNFYPREAKVQWKVDNALQSGNSQESVTEQDSKDSTYSLSSTLTLSKADYEKHKVYACEVTHQGLSSPVTKSFNRGEC
2 fold | 0.7 fold | 4 fold | 0.03 fold | 14.5 fold | 7.7 fold | 2.1 fold | 32.9 fold | 140 nM | M103205H795-MY292/M103202L889-SK1 (antibody, human IgG1, kappa) heavy: QVTLKESGPVLVKPTETLTLTCTVSGIDLSHDDISWVRQAPGKGLEWVGIISYAGSTYYASWAKGRLTISKDTSKNQVVLTMTNMDPVDTATYYCARGVPAYSHGGDLWGQGTLVTVSSASTKGPSVFPLAPSSKSTSGGTAALGCLVKDYFPEPVTVSWNSGALTSGVHTFPAVLQSSGLYSLSSVVTVPSSSLGTQTYICNVNHKPSNTKVDKKVEPKSCDKTHTCPPCPAPELLGYPSVFLFPPKPKDTLMISRTPEVTCVVVDVSDEDPEVKFNWYVDGVEVHNAKTKPREELYNSTYRVVSVLTVLHQDWLNGKEYKCKVSNKALPKPIEKTISKAKGQPREPQVYTLPPSREEMTKNQVSLTCLVKGFYPSDIAVEWESNGQPENNYKTTPMVLDSDGSFFLYSKLTVDKSRWQQGNVFSCSVMHEALHNHYTQKSLSLSP light: DIVMTQSPATLSLSPGERATLSCTSSQSVYHANWLSWFQQKPGQPPKLLIYWASTLAYGVPSRFSGSGSGTDFTLTISSLQPEDAATYYCAGGYGGGRYAFGQGTKVEIKRTVAAPSVFIFPPSDEQLKSGTASVVCLLNNFYPREAKVQWKVDNALQSGNSQESVTEQDSKDSTYSLSSTLTLSKADYEKHKVYACEVTHQGLSSPVTKSFNRGEC
